These results are taken from the DeepSol protein solubility set.

The data set is described as follows: soluble on expression in E. coli; label from the status in PepcDB or PDB records.
Consider “MGSDKIHHHHHHMYNNINYKVLWGHSEYDGSFEIMEFRQLSYFISVAKYLSFTKAAEEHHIAQTAISQQISTLEKQLNVKLFVRNNRAVELTDAGRVLLKEADLITSRVVEAERKTKQAALGFEGSLNVGILGSSEKNFLPVILKRFHKLYPKIGINLSRNSYKKLADDMKGGHLDITFIFPYELNDISHVKYRKLFDYEICLVVNKEHRLARYKKIDVKEIKNEKFIVVGKEEAPSTVKQMRKNCMGDGFKLNVVAECKNLDTMLIMVEAGMGVALVPTCVANDSNNNISYIELENSKQIVEIGVAWMEGNMNPTLKLFLGVLSDLYWDN”, for which the “soluble on expression in E. coli” value is given as “not soluble”.

In the case of “MPSAHSVKLRPLEREDLRYVHQLDNNASVMRYWFEEPYEAFVELSDLYDKHIHDQSERRFVVECDGEKAGLVELVEINHVHRRAEFQIIISPEYQGKGLATRAAKLAMDYGFTVLNLYKLYLIVDKENEKAIHIYRKLGFSVEGELMHEFFINGQYRNAIRMCIFQHQYLAEHKTPGQTLLKPTAQ”, the “soluble on expression in E. coli” value was “soluble”.

On to “LLSDYYHKRFGVDTRSVRFPGLISNVTLPGGGTTDYAVDIYYAAVKEGRFTCPIKEGTYMDMMYMPDALRACVELMEADPARLVHRNSFNITAMSFEPSQIAAAVKKLVPDFVMNYEVDPLRQGIAESWPNSLDDSCARSEWDWKPDYDLDSMSADMIQILKARYGK”, for which the “soluble on expression in E. coli” value was “not soluble”.

For “MESSGKSSANPNLLAETLTTMQAQLQTQTEISQQVMEDNKNQSALLKQQREMSQALLEENKRLRAAQGDQPRFVAVGEKPLNSVKLMSDLLRQLPKYHFDVSEPDSFTKWWARHKLTFTEDGAELSNRERNRMLVARLEESTFQRFVDSQRDVEDIYSVPVEDTIKALSKSFGSQRSLMIRRQSCLLISRASGASMDPLEYTNLVGEAVLDAKLSNMSTDDWSIFIFLRGMDAPEDALAKRYLMQYYEQFERKDEKLKLSDVHDEWIRYIQTQQQSKVITVTPARHPKFEVNQVDADDKKKDSRKGNYRPPYCYKCKVVGHVSKDCPQSSTNSGVTNRKTEHSEVNTLEVGSGRQTSPSLRLNVEGQQIDFTFDTGSDITLISVQNWQKIGKPHLEKVHHKICCANGTEIAVKGRVLVWFKVKGVEYTEYVYVWNRNNNLLGTSWMRHSPQMRDALAVMVNHISTVDNSKQNSHSFSRIPTGYKDRAENVGRHVVASAPRSSKRQYVRFARNKAFQIGQLCLARVQGEHDFGWIYGVVQRQVNGVLYEVQLGSRIQRIHTNQLRHICGRRSRGNDYASSFIENPCKLSLLENIPRSSCRQKFVAQGVRGEGREANPVLVSDSSVFGFSAPDLSACESVGSRSAREVVSSVAGNARNASGANITTIHVTESKSSLKKSHRRRRRVAKSRQSYTAGSSPIKETHLDPLLESDVASDGERFQPGILLRHSLRQSHPRQVVRGSAPNTDHVSTRRRGRDTASGRDAPSPGIISGFLSYKRGDVVDGT”, the “soluble on expression in E. coli” value was “soluble”.

Turning to “MGSDKIHHHHHHMVKNNNIAVKVEHVSKSFKLPTESSQSLRTTLVNLFKGIKGYVEYNVLQDISFEVEKGDFFGIVGRNGSGKSTLLKILSQIYVPERGTVAVDGKLVSFIELGVGFNPELTGKENVYLNGAMLGFTAEEIDAMYDDIVEFAELSEFMNQKLKNYSSGMQVRLAFSVAIKAQGDILILDEVLAVGDEAFQRKCNDYFLERKKSGKTTILVTHDMGAVKKYCNKALLIEKGYVKALGEPDDVANQYSFDNVLASISEVTENEEPLHQSDIVKDLQINLVSKNQIEPDESIEIEFRYTVLEDIETHVAFTFLDLERHFDVYNDNSMDLKTFGKGEKFFRVKCKLPSINQAKLKMAVSVRNSNKQPLLFAKTSDTPAIFISRKFSTDNIAEEDAATGFIQRNSQWELLD”, the “soluble on expression in E. coli” value was “not soluble”.

On to “MGSDKIHHHHHHQLVLAPADAERYAQNSFPEYLELLTLQNDAAVPADIQRNADWLEKAFQKRGFTTQTLTNGDKPLVYAEFGAAKSDRKTILFYMHFDGQPVNPSEWQTPPWQPVLKEKDAAGKWQTLPESRLLKGDINPEWRIFARASADDKGPIVMFLAAMDAMKEKGVEPAVNIKVLLDSEEEKGSPGLTTVMADHLMLLKSDGMVIYDGAMPSSNRPGINFGNRGSIQIDMTVFGANAAAHSGGYGNVIPNPVQNLATLLASMKDADGKVTIPGYYDRVTLSDSDKKQVAETSPPAGSLEKRFGVAQLDKVAGNAAEAVQYPSLDILGIKAGETGKKASNAIPSTATASVNIRTVPETPPDDMYALLRQYIASKGFHIIAGESPTQAEREQYPHLISLHLTAYPSSAYAARTEIDSPLGHWAVATTTAPRGIAPEKNRMMGGTLPMSGAVSVLKVPYVIVPLVNADNNQHSFDENLRLGNYLEGIRTIVAMATTPLS”, for which the “soluble on expression in E. coli” value is given as “not soluble”.

In the case of “AELLLGVNIDHIATLRNARGTAYPDPVQAAFIAEQAGADGITVHLREDRRHITDRDVRILRQTLDTRMNLEMAVTEEMLAIAVETKPHFCCLVPEKRQEVTTEGGLDVAGQRDKMRDACKRLADAGIQVSLFIDADEEQIKAAAEVGAPFIEIHTGCYADAKTDAEQAQELARIAKAATFAASLGLKVNAGHGLTYHNVKAIAAIPEMHELNIGHAIIGRAVMTGLKDAVAEMKRLMLEARG”, the “soluble on expression in E. coli” value is given as “soluble”.

As to “MGSDKIHHHHHHMVNFLNEGGYVLDFSTADFDAFTYKSIGVPLCETYRLSKGKSLIAYINDTKYEDKIKLLSDLIRYYELSSMKEHDEENRKSRAVAYKKCRSILDKAGGTMVMTATAETLKEAFDSDYISAQIDLMLNLKDGNPTEAIGKAKELIESCCKTILEFEGCTVDKDWEVPRLVDETFKHFHLMPKNISDDVKGAKSIKAILGNLKAIAQGVAELRNLYGSGHGKSSSYKGLESRHASLAIGSSTTLVRFLWDSYERHHNNEVN”, the “soluble on expression in E. coli” value is reported as “not soluble”.

For “MSLAKNVNASVEETFKKSGIPVKVDKSNGQVTFGEKTMFDVDSDVLKPEAKEMLKMFVPKYIETIYKDYGDYISKIVIEGHTDDVGSYIYNLDLSQRRAYSVAKFIVGDEIGDYKYKDKVTKHIIAIGRSKAELIKNGDNSVNRDASRRVELKYEININQNKEGHHHHHH”, the “soluble on expression in E. coli” value is recorded as “soluble”.

For the sequence “MGSDKIHHHHHHMKKLNLQCDLFNNNNLNFSDKGPLQDVFIDKKIIKEWQAKIITHQSPIFKSGHIDVNQYSLFESSSDELNASFNPIELTPLPLSFWRWPKAMHEGPAVYFVMDEIIDSGENIILYIGETISAEKRWKGEHDCKDYISSYSDSLHKANVKAKLSIRFWLDVPTKTKERRKLEQKLIQAWLPPFNKETREIWATPFTSQIN”, the “soluble on expression in E. coli” value is given as “not soluble”.

In the case of “MGSDKIHHHHHHMRLILYLGKGGVGKTTTSAATAVRAAELGYRTLVVSTDVAHSLADALDTPLGSLPTQITERLWGQEINVLDEVREHWGELRVYLSNLLRRRGVDEVAAEELAIIPGMEEVVSLLHIRRQAREGNFDVVIVDAAPTGETVRLLTMPETFQWYAARVMDWEPTTLKVARPLVKQLVPATDVFAKLERLTKGVEALRATLTDPQISSYRLVVNPERMVIKEAQRASTYLALFGYPVDGVVLNRVLPVDQVEGAFMQELARIQQGYRQMVYDLFRPLPIWESPYFARDLAGIEDLAMVGRRLFGDDDPVKVHFIGKTQEIVKQGDEYVLRLPLPHVEIGKVSMTKRGDELFIEIGNFRRDMLLPTTLAERPARRAYFRNGVLEVFFGPPETLSLKTDAQEESTPS”, the “soluble on expression in E. coli” value is listed as “not soluble”.

Take “MSLRRDHTRTAQVTHVESLTNSPGVRENWPGWASPAVVERMVKSGVAKPWSHQVRAANLAHSGSNVIIATGISSGKSLGFLMPCTAAIAEGGSVLYLAPTKALAADQERKLAELAMPGVRAAVYDGDTPMEERSWARAHANYVLTNPDMLHRSIVARHPVWAGFLRRLSYVVVDEAHHYRGVFGSHVAQIMRRLRRVCGCYGAEPRFILASATTATPAETAQQLTGLPVVAVTGDGSARASLRFALVEPELTEKTGEQGAPMRRTATAVAAELLADLVSHEVSTLVFVRSRQAAELVALAAQRALADAGRPELARRVAAYRGGYLAEDRRRLEQRLRSGELLGLATTNALELGVDVSGLDAVVMAGWPGTRASLWQQAGRAGRSGRDALAVFVARDDPLDTYLVHHPDAIFGQDVEATVLDPDNPYVLAPHLCAAAEEEGHHHHHH”: the “soluble on expression in E. coli” value is recorded as “not soluble”.

On to “MAHHHHHHMAERKVLNKYIPPDFDPDKLMESKKLLKKIEKRKNRNQNKTKKKLMNIRMMYPFTLKCNKCKTFTYVGTKFNSRVEKLKDETYLNIPIWKFYGKCQECKNEIIFKTDPKNGDYLLIAGGTRTYDAHKEQELADDYYRNSNVKDEDKIKNTEKQSYNAMLELKMNEQLEELQNMNKRHLDKFSSINKALNRLYEKSELENKENNFFMNNLDSEDEKAFFSLLNKSRSSKDHIGDNLNKYNPSNNNWVNKNIEKDNIIIEEVELDDNKNNNDEVNEYISEGEGEHSDGNNINEVNESFSDLLLKKKKNRYEKENTVKIKQGNIDTEDKPKDNQQDKTNNISFKNTISNNSSSFSNIIHKPMFNKINKETNFNFVIKKKENFQSLLSEYNSDNSNESDN”, for which the “soluble on expression in E. coli” value is reported as “not soluble”.

As for “MRILADENIPVVDAFFADQGSIRRLPGRAIDRAALAEVDVLLVRSVTEVSRAALAGSPVRFVGTCTIGTDHLDLDYFAEAGIAWSSAPGCNARGVVDYVLGCLLAMAEVRGADLAERTYGVVGAGQVGGRLVEVLRGLGWKVLVCDPPRQAREPDGEFVSLERLLAEADVISLHTPLNRDGEHPTRHLLDEPRLAALRPGTWLVNASRGAVVDNQALRRLLEGGADLEVALDVWEGEPQADPELAARCLIATPHIAGYSLEGKLRGTAQIYQAYCAWRGIAERVSLQDVLPETWLAGLQLNPGCDPAWALATLCRAVYDPRSDDAAFRRSLTGDSATRRAAFDALRKHYPPRREITGLRVATGGQAELQRVVRALGAQLV”, the “soluble on expression in E. coli” value is listed as “soluble”.

As for “MNSIKNVPARVLSRRPGHSLEAEREQFDKTQAISISKAINTQEAPVKEKHARRIILGTHHEKGAFTFWSYAIGLPLPSSSILSWKFCHVLHKVLRDGHPNVLHDCQRYRSNIREIGDLWGHLHDRYGQLVNVYTKLLLTKISFHLKHPQFPAGLEVTDEVLEKAAGTDVNNIFQLTVEMFDYMDCELKLSESVFRQLNTAIAVSQMSSGQCRLAPLIQVIQDCSHLYHYTVKLLFKLHSCLPADTLQGHRDRFHEQFHSLRNFFRRASDMLYFKRLIQIPRLPEGPPNFLRASALAEHIKPVVVIPEEAPEDEEPENLIEISTGPPAGEPVVVADLFDQTFGPPNGSVKDDRDLQIESLKREVEMLRSELEKIKLEAQRYIAQLKSQVNALEGELEEQRKQKQKALVDNEQLRHELAQLRAAQLEGERSQGLREEAERKASATEARYNKLKEKHSELVHVHAELLRKNADTAKQLTVTQQSQEEVARVKEQLAFQVEQVKRESELKLEEKSDQLEKLKRELEAKAGELARAQEALSHTEQSKSELSSRLDTLSAEKDALSGAVRQREADLLAAQSLVRETEAALSREQQRSSQEQGELQGRLAERESQEQGLRQRLLDEQFAVLRGAAAEAAGILQDAVSKLDDPLHLRCTSSPDYLVSRAQEALDAVSTLEEGHAQYLTSLADASALVAALTRFSHLAADTIINGGATSHLAPTDPADRLIDTCRECGARALELMGQLQDQQALRHMQASLVRTPLQGILQLGQELKPKSLDVRQEELGAVVDKEMAATSAAIEDAVRRIEDMMNQARHASSGVKLEVNERILNSCTDLMKAIRLLVTTSTSLQKEIVESGRGAATQQEFYAKNSRWTEGLISASKAVGWGATQLVEAADKVVLHTGKYEELIVCSHEIAASTAQLVAASKVKANKHSPHLSRLQECSRTVNERAANVVASTKSGQEQIEDRDTMDFSGLSLIKLKKQEMETQVRVLELEKTLEAERMRLGELRKQHYVLAGASGSPGEEVAIRPSTAPRSVTTKKPPLAQKPSVAPRQDHQLDKKDGIYPAQLVNY”, the “soluble on expression in E. coli” value is reported as “soluble”.

As for “MDDKKDNRHLSKPAYREECTGDTERSTTAYMDILEDVSTGSTSKLPLEAKFVKISNNISEKENLPKEKEIGGVKGLEPTRYGDWQHKGKVTDF”, the “soluble on expression in E. coli” value was “soluble”.
